Test results as given in article PMC9482650, “Quantitative fragmentomics allow affinity mapping of interactomes” (Nature Communications, 2022).

Key:
Assay in all cases: holdup assay
Design in all cases: key: below the threshold = too weak to quantify, mostly under pKd 3.1 to 4
[1] = target: PDZD9, Q8IXQ8
[2] = target: T1, SHROOM3, Q8TF72
T1 sequence (Q8TF72 20-120, limits assumed, looked up): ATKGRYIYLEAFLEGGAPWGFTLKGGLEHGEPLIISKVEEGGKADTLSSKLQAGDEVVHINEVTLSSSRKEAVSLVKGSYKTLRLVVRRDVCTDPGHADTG

[3] = target: PARD3_1, Q8TEW0
[4] = target: NHERF4_3, Q86UT5
[5] = target: CARD14, Q9BXL6
[6] = target: T2, SIPA1L3, O60292
T2 sequence (O60292 961-1052, limits assumed, looked up): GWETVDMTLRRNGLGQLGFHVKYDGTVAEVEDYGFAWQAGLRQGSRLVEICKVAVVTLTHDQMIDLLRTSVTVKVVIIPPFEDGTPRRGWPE

[7] = target: PDLIM4, P50479
[8] = target: MAGI1_3, Q96QZ7
[9] = target: T3, MPDZ_7, O75970
T3 sequence (O75970 1146-1253, limits assumed, looked up): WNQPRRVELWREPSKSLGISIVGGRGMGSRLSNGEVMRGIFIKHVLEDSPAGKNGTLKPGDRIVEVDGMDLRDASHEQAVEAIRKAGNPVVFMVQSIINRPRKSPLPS

[10] = target: T4, LNX2_4, Q8N448
T4 sequence (Q8N448 595-690, limits assumed, looked up): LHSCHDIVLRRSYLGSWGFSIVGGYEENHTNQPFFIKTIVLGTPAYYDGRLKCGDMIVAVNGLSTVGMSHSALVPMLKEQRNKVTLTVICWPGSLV

[11] = target: T5, RGS12, O14924
T5 sequence (O14924 17-108, limits assumed, looked up): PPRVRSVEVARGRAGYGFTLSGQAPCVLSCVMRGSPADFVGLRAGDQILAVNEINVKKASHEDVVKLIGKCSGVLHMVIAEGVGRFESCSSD

[12] = target: MAGI3_4, Q5TCQ9
[13] = target: T6, MPP5, Q8N3R9
T6 sequence (Q8N3R9 251-346, limits assumed, looked up): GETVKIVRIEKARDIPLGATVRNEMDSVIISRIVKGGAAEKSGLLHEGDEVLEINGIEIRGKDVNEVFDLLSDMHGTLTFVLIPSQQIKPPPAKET

[14] = target: MAGI1_4, Q96QZ7
[15] = target: MAST3, O60307
[16] = target: DLG5_2, Q8TDM6
[17] = target: T7, DVL1, O14640
T7 sequence (O14640 246-333, limits assumed, looked up): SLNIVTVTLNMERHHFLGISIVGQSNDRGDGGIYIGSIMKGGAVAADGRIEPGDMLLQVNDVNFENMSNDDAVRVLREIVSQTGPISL

[18] = target: T8, PTPN13_5, Q12923
T8 sequence (Q12923 1877-1975, limits assumed, looked up): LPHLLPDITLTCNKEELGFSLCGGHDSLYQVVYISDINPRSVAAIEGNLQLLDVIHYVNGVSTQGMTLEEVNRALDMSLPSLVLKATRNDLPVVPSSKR

[19] = target: T9, SNTB2, Q13425
T9 sequence (Q13425 110-208, limits assumed, looked up): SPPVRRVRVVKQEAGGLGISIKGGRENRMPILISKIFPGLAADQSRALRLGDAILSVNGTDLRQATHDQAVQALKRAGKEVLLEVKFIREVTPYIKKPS

[20] = target: T10, MPDZ_11, O75970
T10 sequence (O75970 1720-1817, limits assumed, looked up): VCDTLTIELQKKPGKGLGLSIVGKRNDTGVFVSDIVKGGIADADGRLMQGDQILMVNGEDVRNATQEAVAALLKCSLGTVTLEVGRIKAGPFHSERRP

[21] = target: CNKSR3, Q6P9H4
[22] = target: T11, NHERF1_2, O14745
T11 sequence (O14745 149-244, limits assumed, looked up): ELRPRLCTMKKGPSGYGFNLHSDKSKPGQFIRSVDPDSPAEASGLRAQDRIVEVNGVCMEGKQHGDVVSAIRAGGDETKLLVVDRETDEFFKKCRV

[23] = target: T12, PDZD11, Q5EBL8
T12 sequence (Q5EBL8 42-139, limits assumed, looked up): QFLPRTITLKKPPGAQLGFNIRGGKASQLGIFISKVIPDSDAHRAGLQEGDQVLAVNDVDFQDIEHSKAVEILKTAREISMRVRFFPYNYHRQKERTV

[24] = target: T13, PDZD2_4, O15018; settings: plain residues with an end cap or a label only (N-terminal biotin on a linker: ttds)
T13 sequence (O15018 723-823, limits assumed, looked up): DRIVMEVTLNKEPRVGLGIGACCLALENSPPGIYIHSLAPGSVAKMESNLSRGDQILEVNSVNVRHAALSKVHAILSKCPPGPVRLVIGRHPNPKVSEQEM

[25] = plain residues with an end cap or a label only (N-terminal biotin on a linker: none)
[26] = plain residues with an end cap or a label only (N-terminal biotin on a linker: ttds)

Measured: pKd

MAGI1_3, Q96QZ7, sequence (Q96QZ7 638-725): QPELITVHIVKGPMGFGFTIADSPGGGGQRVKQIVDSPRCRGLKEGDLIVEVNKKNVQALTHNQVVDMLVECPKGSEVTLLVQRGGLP
DLG5_2, Q8TDM6, sequence (Q8TDM6 714-800): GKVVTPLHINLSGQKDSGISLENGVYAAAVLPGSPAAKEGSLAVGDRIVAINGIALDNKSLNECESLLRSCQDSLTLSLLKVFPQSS
PDZD9, Q8IXQ8, sequence (Q8IXQ8 23-120): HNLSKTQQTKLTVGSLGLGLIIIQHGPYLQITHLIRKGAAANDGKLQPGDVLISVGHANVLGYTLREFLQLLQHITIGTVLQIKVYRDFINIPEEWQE
PARD3_1, Q8TEW0, sequence (Q8TEW0 264-372): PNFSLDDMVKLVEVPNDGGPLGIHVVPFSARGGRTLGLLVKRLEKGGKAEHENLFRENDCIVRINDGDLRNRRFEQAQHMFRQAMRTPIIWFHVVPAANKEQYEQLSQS
MAGI1_4, Q96QZ7, sequence (Q96QZ7 other isoform, or with tags, fused parts or gaps): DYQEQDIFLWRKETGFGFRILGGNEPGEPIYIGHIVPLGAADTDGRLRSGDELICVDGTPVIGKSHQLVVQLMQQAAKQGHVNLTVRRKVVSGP
PDLIM4, P50479, sequence (P50479 1-83): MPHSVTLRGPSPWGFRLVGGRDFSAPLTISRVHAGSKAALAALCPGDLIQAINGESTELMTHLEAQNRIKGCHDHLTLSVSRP
MAGI3_4, Q5TCQ9, sequence (Q5TCQ9 716-815): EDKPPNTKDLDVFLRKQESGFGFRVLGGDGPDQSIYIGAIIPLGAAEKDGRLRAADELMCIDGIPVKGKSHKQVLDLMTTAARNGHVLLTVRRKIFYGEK
MAST3, O60307, sequence (O60307 945-1048): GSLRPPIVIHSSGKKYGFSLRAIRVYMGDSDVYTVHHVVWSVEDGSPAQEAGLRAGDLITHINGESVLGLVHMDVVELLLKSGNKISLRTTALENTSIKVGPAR
CNKSR3, Q6P9H4, sequence (Q6P9H4 203-303): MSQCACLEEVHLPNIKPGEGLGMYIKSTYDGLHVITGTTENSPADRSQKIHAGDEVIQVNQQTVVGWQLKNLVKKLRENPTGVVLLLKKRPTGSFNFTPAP
NHERF4_3, Q86UT5, sequence (Q86UT5 325-412): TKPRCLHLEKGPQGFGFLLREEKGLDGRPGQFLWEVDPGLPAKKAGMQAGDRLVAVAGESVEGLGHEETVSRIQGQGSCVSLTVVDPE
CARD14, Q9BXL6, sequence (Q9BXL6 558-663): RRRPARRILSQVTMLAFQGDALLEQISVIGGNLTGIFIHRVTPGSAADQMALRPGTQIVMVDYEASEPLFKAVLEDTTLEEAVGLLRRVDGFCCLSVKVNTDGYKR

NLNSSRVPDLLV [SARS-CoV2-E, P0DTC4]
4.76: [22]; [25]
4.01: [13]; [25]
below the threshold: [2]; [25] | [3]; [25] | [4]; [25] | [5]; [25] | [6]; [25] | [7]; [25] | [8]; [25] | [9]; [25] | [10]; [25] | [11]; [25] | [12]; [25] | [15]; [25] | [16]; [25] | [17]; [25] | [18]; [25] | [19]; [25] | [20]; [25] | [21]; [25] | [23]; [25]
3.94: [1]; [25]
3.75: [14]; [25]

SKPTRRETEV [HPV35-E6, P27228]
4.09: [8]; [26]
3.76: [12]; [26]
4.72: [16]; [26]
below the threshold: [1]; [26] | [2]; [26] | [3]; [26] | [6]; [26] | [24] | [9]; [26] | [11]; [26] | [13]; [26] | [14]; [26] | [15]; [26] | [17]; [26] | [18]; [26] | [20]; [26] | [22]; [26] | [23]; [26]
3.78: [4]; [26]
3.57: [21]; [26]
4.16: [7]; [26]

RHTTSTETAV [HPV30-E6, P36809]
4.68: [19]; [26]
4.78: [24]
4.72: [8]; [26]
below the threshold: [1]; [26] | [2]; [26] | [3]; [26] | [4]; [26] | [5]; [26] | [6]; [26] | [7]; [26] | [9]; [26] | [10]; [26] | [11]; [26] | [12]; [26] | [13]; [26] | [14]; [26] | [15]; [26] | [16]; [26] | [17]; [26] | [18]; [26] | [20]; [26] | [21]; [26] | [22]; [26] | [23]; [26]
